Results: US20230120018A1, “PREDICTION OF PEPTIDE CLEAVAGE IN POLYPEPTIDES THROUGH PHYSICS-BASED SIMULATIONS” (Genentech, Inc., priority 2020, published 2023)

B1: otlertuzumab (antibody, chains of the INN, looked up, V domains shown)
VH: EVQLVQSGAEVKKPGESLKISCKGSGYSFTGYNMNWVRQMPGKGLEWMGNIDPYYGGTTYNRKFKGQVTISADKSISTAYLQWSSLKASDTAMYYCARSVGPFDSWGQGTLVTVSS
VL: EIVLTQSPATLSLSPGERATLSCRASENVYSYLAWYQQKPGQAPRLLIYFAKTLAEGIPARFSGSGSGTDFTLTISSLEPEDFAVYYCQHHSDNPWTFGQGTKVEIK

What was measured:
[1] = Asn-Pro hydrolysis in unstructured linear peptide mimics of CDR-L3 at accelerated temperature; format: physicochemical; conditions: pH 7.4, 90° C.
Method: To examine the effect of antibody structure on the rate of Asn-Pro hydrolysis, thermal stress was performed on unstructured, linear peptides representing the CDR-L3 sequence of Fab1 and Mab3. Since it had been previously shown that the rate of hydrolysis in unstructured peptides incubated at 37° C. was slow, accelerated temperature conditions (90 and 70° C.) were performed and the temperature dependence extrapolated to calculate the rate at 37° C. Very slow rates of peptide hydrolysis (Table 2), with half-lives calculated for 37° C. of greater than 2000 days, were observed. As expected, the rate of hydrolysis was slower, by about 3-fold, for incubations performed in pH 5 buffer.

[2] = Neutral pH 37 C stability of commercial antibodies, fragmentation by mass spectroscopy and CE-SDS; format: physicochemical; conditions: PBS pH 7.4, up to 4 weeks at 37° C.
Method: In addition to the data shown for Mab5 in Table 1 and FIG. 9, neutral pH, 37 C stability data was generated for all except muromonab, teplizumab, tovetumab, and visilizumab. Antibodies formulated in PBS, pH 7.4, were incubated for up to 4 weeks at 37° C. and evidence for fragmentation was obtained by mass spectroscopy and capillary electrophoresis sodium dodecyl sulfate (CE-SDS) for both intact and reduced samples.

Molecule	% Pro peak formation/day at 90° C. [1]	Light chain fragment observed? (hydrolysis at Asn-Pro in CDR-L3) [2]
Fab2: peptide mimic of Fab2 CDR-L3 segment, QQGYGNPFTFGQ	2.9 % Pro peak formation/day	–
Fab1: peptide mimic of Fab1 CDR-L3 segment, QQWSSNPWTFGQ	1.0 % Pro peak formation/day	–
Mab3: peptide mimic of Mab3 CDR-L3 segment, QQWSSNPYTFGQ	2.9 % Pro peak formation/day	–
veltuzumab [reference compound]	–	detected and Yes
Mab4: peptide mimic of Mab4 CDR-L3 segment, QQGINNPLTFGQ	1.9 % Pro peak formation/day	–
B1	–	not and No
